Assay results: doi:10.1101/2022.11.25.517900 (bioRxiv, 2022)

Biological target: the molecule itself
Assay: cryo-EM structure

B1: Vibrio alginolyticus PomB, full length, non-cleaved (without protease site insertion) (natural protein, UniProt O06874 1-315, looked up)
chain: MDDEDNKCDCPPPGLPLWMGTFADLMSLLMCFFVLLLSFSEMDVLKFKQIAGSMKFAFGVQNQLEVKDIPKGTSIIAQEFRPGRPEPTPIDVIMQQTMDITQQTLEFHEGESDRAGGTKRDEGKLTGGQSPATSTQNNESAEADMQQQQSKEMSQEMETLMESIKKALEREIEQGAIEVENLGQQIVIRMREKGAFPEGSAFLQPKFRPLVRQIAELVKDVPGIVRVSGHTDNRPLDSELYRSNWDLSSQRAVSVAQEMEKVRGFSHQRLRVRGMADTEPLLPNDSDDNRALNRRVEISIMQGEPLYSEEVPVIQ
- binding result: binds
